Holding throughout (test): peptide SPOT array, c-Myc-tagged receptor at 1 uM or 100 nM, anti-c-Myc-Cy3
One assay deals with T1, Mcl-1, Q07820.
T1 chain: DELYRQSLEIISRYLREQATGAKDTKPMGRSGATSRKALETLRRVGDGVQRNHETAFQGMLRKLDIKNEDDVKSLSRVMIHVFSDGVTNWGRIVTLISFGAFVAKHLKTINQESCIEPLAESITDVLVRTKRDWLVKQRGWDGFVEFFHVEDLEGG

For another assay, the target named is Bcl-xL, Q07817.
The next assay addresses T2, Bfl-1, Q16548.
T2 chain: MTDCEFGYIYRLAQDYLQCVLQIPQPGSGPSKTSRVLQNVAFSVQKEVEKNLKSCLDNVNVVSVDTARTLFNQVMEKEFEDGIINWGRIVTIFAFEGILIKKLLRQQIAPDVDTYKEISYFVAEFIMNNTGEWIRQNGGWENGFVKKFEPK

Bcl-xL, Q07817, sequence (Q07817 1-209): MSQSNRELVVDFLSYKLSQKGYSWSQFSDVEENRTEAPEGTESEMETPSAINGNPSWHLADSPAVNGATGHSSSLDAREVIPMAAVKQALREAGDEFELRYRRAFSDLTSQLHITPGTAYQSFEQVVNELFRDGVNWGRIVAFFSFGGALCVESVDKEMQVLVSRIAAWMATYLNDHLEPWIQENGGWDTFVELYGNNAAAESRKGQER

Take SEIMHSFAKCIEVMLDGCLNNEHFEE: the SPOT signal as a fraction of Bim BH3's signal on the same receptor and array stood at 0.06 with Mcl-1, Q07820; 0.1 with Bcl-xL, Q07817; 0.04 with Bfl-1, Q16548.
For YIVLGLRKTTLQKVLKEVAELVGRVG [NLRX1], in that order: 0.25, 0.35 and 0.23.
With LLDFFMVSILFSKLGDLLHKLQFVLT [PCNXL2], the SPOT signal as a fraction of Bim BH3's signal on the same receptor and array with Mcl-1, Q07820 was determined as 0.09; in the assay with Bcl-xL, Q07817 it was 0.11; with Bfl-1, Q16548 it was 0.06.
For the molecule AIILCNVCGNDCTDCDRFLHLHRRTK [MYCBP2], the SPOT signal as a fraction of Bim BH3's signal on the same receptor and array in the assay with Mcl-1, Q07820 is 0.16; with Bcl-xL, Q07817, 0.2; with Bfl-1, Q16548, 0.13.
Take CHGLRELALNYHLLLDELLLALSSEK [FBXL3]: the SPOT signal as a fraction of Bim BH3's signal on the same receptor and array with Mcl-1, Q07820 was 0.06; with Bcl-xL, Q07817 it was 0.07; with Bfl-1, Q16548, 0.04.
Regarding AEVMRQRGINDRYLGKVLELVLRSPA [KIAA0664], the SPOT signal as a fraction of Bim BH3's signal on the same receptor and array was found to be 0.53 with Mcl-1, Q07820; 0.86 with Bcl-xL, Q07817; 0.49 with Bfl-1, Q16548.
Take AFGLGDLPNLLGLVGDQLGDTERKRR [ADAMTS14]: the SPOT signal as a fraction of Bim BH3's signal on the same receptor and array came out at 0.08 with Mcl-1, Q07820; 0.1 in the assay with Bcl-xL, Q07817; 0.06 in the assay with Bfl-1, Q16548.
As to VLELHPGAQRDHIGCDEVYYLGEGEA [HEXDC], the SPOT signal as a fraction of Bim BH3's signal on the same receptor and array in the assay with Mcl-1, Q07820 was 0.04; in the assay with Bcl-xL, Q07817 it was 0.05; in the assay with Bfl-1, Q16548, 0.04.
As to SFLSAHCASHLAWFGDSLTSLSQRLQ [TMEM214], the SPOT signal as a fraction of Bim BH3's signal on the same receptor and array with Mcl-1, Q07820 was determined as 0.06; with Bcl-xL, Q07817 it was 0.09; in the assay with Bfl-1, Q16548, 0.09.
As for MPYMEAVIHEIQRFGDVIPMSLARRV [CYP2A6], the SPOT signal as a fraction of Bim BH3's signal on the same receptor and array in the assay with Mcl-1, Q07820 is 0.1; with Bcl-xL, Q07817, 0.15; in the assay with Bfl-1, Q16548, 0.1.
For the molecule MSLFLRVVFSDTMFGDLFEEEYSTVS [USP40], the SPOT signal as a fraction of Bim BH3's signal on the same receptor and array with Mcl-1, Q07820 is 0.05; with Bcl-xL, Q07817, 0.06; in the assay with Bfl-1, Q16548, 0.04.
As for LNLLMISVAFLRVIGDQLEKLCDSLL [SLC38A8], the SPOT signal as a fraction of Bim BH3's signal on the same receptor and array in the assay with Mcl-1, Q07820 is 0.05; with Bcl-xL, Q07817, 0.05; with Bfl-1, Q16548 it was 0.05.
For LWAAQRYGRELRRMLDEFVDSFKKGL [BAD], the SPOT signal as a fraction of Bim BH3's signal on the same receptor and array with Mcl-1, Q07820 was found to be 0.41; with Bcl-xL, Q07817 it was 0.49; with Bfl-1, Q16548, 0.42.
For the molecule SEIMHSFAKCDEVMGDGCLNNEHFEE, the SPOT signal as a fraction of Bim BH3's signal on the same receptor and array is 0.04 with Mcl-1, Q07820; 0.09 with Bcl-xL, Q07817; 0.03 with Bfl-1, Q16548.
With NNNMDVESRTDATMGDTLASRGLLDA [SEC16A], the SPOT signal as a fraction of Bim BH3's signal on the same receptor and array was found to be 0.03 in the assay with Mcl-1, Q07820; 0.05 in the assay with Bcl-xL, Q07817; 0.06 in the assay with Bfl-1, Q16548.
For CGEWTRRSLHDRVLGRQLILPTDKGV [FAM149A], in that order: 0.72, 0.91 and 0.86.
As for GTAVAYRGAHDRGRGRAVYNTFRAAP, the SPOT signal as a fraction of Bim BH3's signal on the same receptor and array with Mcl-1, Q07820 was 1.35; with Bcl-xL, Q07817 it was 2.76; with Bfl-1, Q16548, 1.47.
For MSILTIASAVLEFVGDGIYNNTMGHV [TAP1], in that order: 0.05, 0.06 and 0.04.
Taken in the same sequence, the figures for ERLKGQLCDVLLIVLDQKFRAHKNVL [ZNF295] were 0.19, 0.41 and 0.19.
On to LFWTPLLVVLLAGLLDTEAQQTTLHP [SGCA], for which the SPOT signal as a fraction of Bim BH3's signal on the same receptor and array was found to be 0.05 with Mcl-1, Q07820; 0.06 in the assay with Bcl-xL, Q07817; 0.08 with Bfl-1, Q16548.
Take VLAPVQLGKWLVLFCDEINLPDMDKY [DYNC1H1]: the SPOT signal as a fraction of Bim BH3's signal on the same receptor and array with Mcl-1, Q07820 is 0.05; with Bcl-xL, Q07817, 0.36; with Bfl-1, Q16548 it was 0.08.
As for LALMMQLARELKTLARDLGMAVVVTN [RAD51L3], the SPOT signal as a fraction of Bim BH3's signal on the same receptor and array with Mcl-1, Q07820 turned out to be 0.12; with Bcl-xL, Q07817, 0.1; with Bfl-1, Q16548, 0.07.
Taken in the same sequence, the figures for VHKHSRLAEVLQLGSDILPQYKQEAP [KCNH1] were 0.21, 0.17 and 0.09.
Consider TAGLRPGARLLRVCLQTLPSLRPEAA [SIPA1], for which the SPOT signal as a fraction of Bim BH3's signal on the same receptor and array was found to be 0.63 with Mcl-1, Q07820; 0.86 with Bcl-xL, Q07817; 0.57 in the assay with Bfl-1, Q16548.
In the case of SQEPLEKAQLDALVGDQLIQSHHYAA [MCF2L2], the SPOT signal as a fraction of Bim BH3's signal on the same receptor and array stood at 0.03 in the assay with Mcl-1, Q07820; 0.06 in the assay with Bcl-xL, Q07817; 0.04 with Bfl-1, Q16548.
In the case of SWFIQSLCAMDKQYADKLEFMHILTR [CASP3], the SPOT signal as a fraction of Bim BH3's signal on the same receptor and array with Mcl-1, Q07820 amounted to 0.06; with Bcl-xL, Q07817 it was 0.08; in the assay with Bfl-1, Q16548, 0.05.
Take TAAAAYRGAHLRGRGRTVYNTFRAAA: the SPOT signal as a fraction of Bim BH3's signal on the same receptor and array was 1.37 with Mcl-1, Q07820; 2.64 in the assay with Bcl-xL, Q07817; 1.71 with Bfl-1, Q16548.
On to PYLSKHRADRMRRLLDFLNQESFDLA [SMPD2], for which the SPOT signal as a fraction of Bim BH3's signal on the same receptor and array came to 0.52 with Mcl-1, Q07820; 0.67 with Bcl-xL, Q07817; 0.53 in the assay with Bfl-1, Q16548.

The values are drawn from PMC4072508, “Genome-Wide Prediction and Validation of Peptides That Bind Human Prosurvival Bcl-2 Proteins” (PLoS Computational Biology, 2014).
